Columns and labels:
GroES^7I25A1,2 (E. coli) [1] = test: MST; cochaperonin labelled with DyLight 650; unlabelled GroEL or GroEL^SR in a serial dilution of 15 samples; 50 mM TrisCl pH 7.5, 100 mM KCl, 10 mM MgCl2, 1 mM EDTA, 2 mM ADP, 0.5 mg/mL BSA; 30 min incubation
GroES^7I25A1,4 (E. coli) [2] = test: as above
GroESI25A (E. coli) = GroESI25A (E. coli) (UniProt P0A6F9); test: as above
[3] = target: GroES^7I25A_(1,4,7) (E. coli); test: as above
GroES^7I25A1,3 (E. coli) [4] = test: as above
[5] = target: GroES^7I25A_(1,4,6) (E. coli); test: as above
GroESL27A (E. coli) = GroESL27A (E. coli) (UniProt P0A6F9); test: as above
GroES^7I25A1 (E. coli) [6] = target: GroES^7I25A1 (E. coli)
GroES^7I25A1 (E. coli) [7] = target: GroES^7I25A1 (E. coli); remark: listed apart in the source
GroES^7I25D1,4 (E. coli) = test: MST; cochaperonin labelled with DyLight 650, unlabelled GroEL or GroEL^SR titrated (serial dilution of 15 samples), 30 min incubation; 50 mM TrisCl pH 7.5, 100 mM KCl, 10 mM MgCl2, 1 mM EDTA, 2 mM ADP, 0.5 mg/mL BSA; Monolith NT115, 80% LED, 40% IR-laser
[8] = target: GroES^7I25D1,4,7 (E. coli); test: as above
GroES^7I25D1,3 (E. coli) = test: as above
GroES^7I25A1 (E. coli) [9] = test: MST; cochaperonin labelled with DyLight 650; unlabelled GroEL or GroEL^SR in a serial dilution of 15 samples; 50 mM TrisCl pH 7.5, 100 mM KCl, 10 mM MgCl2, 1 mM EDTA, 2 mM ADP, 0.5 mg/mL BSA; 30 min incubation
GroES^7 (E. coli) [10] = test: as above
GroES^7I25A1,2 (E. coli) [11] = target: GroES^7I25A1,2 (E. coli)
GroES^7I25A1 (E. coli) [12] = target: GroES^7I25A1 (E. coli); remark: listed apart in the source
GroES^7I25A1,4 (E. coli) [13] = target: GroES^7I25A1,4 (E. coli)
[14] = target: GroES^7I25A_(1,4,7) (E. coli)
GroES^7I25A1,3 (E. coli) [15] = target: GroES^7I25A1,3 (E. coli)
[16] = target: GroES^7I25A_(1,4,6) (E. coli)
GroES^7I25A1,2 (E. coli) [17] = test: MST; cochaperonin labelled with DyLight 650, unlabelled GroEL or GroEL^SR titrated (serial dilution of 15 samples), 30 min incubation; 50 mM TrisCl pH 7.5, 100 mM KCl, 10 mM MgCl2, 1 mM EDTA, 2 mM ADP, 0.5 mg/mL BSA; Monolith NT115, 80% LED, 40% IR-laser
GroES^7 (E. coli) [18] = test: as above
GroES^7I25A1,4 (E. coli) [19] = test: as above
GroES^7I25D1 (E. coli) = test: as above
GroES^7I25D1,2 (E. coli) = test: as above
GroES^7I25A1,3 (E. coli) [20] = test: as above

GroEL, sequence (P0A6F5 whole entry): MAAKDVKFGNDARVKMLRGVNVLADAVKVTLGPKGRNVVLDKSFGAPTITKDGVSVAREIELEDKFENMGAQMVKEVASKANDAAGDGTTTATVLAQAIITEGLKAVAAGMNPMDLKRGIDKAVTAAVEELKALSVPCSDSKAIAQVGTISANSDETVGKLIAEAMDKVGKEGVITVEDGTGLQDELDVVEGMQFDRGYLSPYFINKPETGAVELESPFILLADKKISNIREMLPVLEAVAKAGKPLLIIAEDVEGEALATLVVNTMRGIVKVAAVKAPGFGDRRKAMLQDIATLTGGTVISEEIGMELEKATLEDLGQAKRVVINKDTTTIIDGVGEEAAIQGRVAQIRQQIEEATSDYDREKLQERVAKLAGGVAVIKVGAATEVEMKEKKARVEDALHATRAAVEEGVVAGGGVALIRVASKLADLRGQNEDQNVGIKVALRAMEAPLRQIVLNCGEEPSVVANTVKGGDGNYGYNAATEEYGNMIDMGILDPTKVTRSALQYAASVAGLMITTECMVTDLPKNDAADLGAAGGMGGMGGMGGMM

Substance: GroEL (from UniProt P0A6F5 1-548) (natural protein)
- fold reduction of affinity against GroES^7 (GroES^7I25A1,2 (E. coli) [1]): 2 fold
- fold reduction of affinity against GroES^7 (GroES^7I25A1,4 (E. coli) [2]): 2 fold
- Kd (GroESI25A (E. coli)): > 5 µM
- fold reduction of affinity against GroES^7 [3]: > 25 fold
- fold reduction of affinity against GroES^7 (GroES^7I25A1,3 (E. coli) [4]): 2 fold
- fold reduction of affinity against GroES^7 [5]: > 25 fold
- Kd (GroESL27A (E. coli)): > 5 µM
- yield of GroEL-mediated MDH folding (GroES^7I25A1 (E. coli) [6]): 72%
- ATPase activity of GroEL left in the presence of the variant (GroES^7I25A1 (E. coli) [7]): 53.2%
- Kd (GroES^7I25D1,4 (E. coli)): 9.58 nM
- Kd [8]: 40 nM
- Kd (GroES^7I25D1,3 (E. coli)): 13.3 nM

Substance: GroEL^SR (GroEL R452A/E461A/S463A/V464A) (from UniProt P0A6F5 1-548) (natural protein)
- fold reduction of affinity against GroES^7 (GroES^7I25A1,2 (E. coli) [1]): > 10 fold
- Kd (GroES^7I25A1 (E. coli) [9]): 8.5 nM
- Kd (GroES^7 (E. coli) [10]): 3.7 nM
- fold reduction of affinity against GroES^7 (GroES^7I25A1,4 (E. coli) [2]): > 10 fold
- fold reduction of affinity against GroES^7 (GroES^7I25A1,3 (E. coli) [4]): > 10 fold
- inhibition of the ATPase of GroEL^SR (GroES^7I25A1,2 (E. coli) [11]): 50%
- inhibition of the ATPase of GroEL^SR (GroES^7I25A1 (E. coli) [12]): 80%
- inhibition of the ATPase of GroEL^SR (GroES^7I25A1,4 (E. coli) [13]): 50%
- inhibition of the ATPase of GroEL^SR [14]: 20%
- inhibition of the ATPase of GroEL^SR (GroES^7I25A1,3 (E. coli) [15]): 50%
- inhibition of the ATPase of GroEL^SR [16]: 20%
- Kd (GroES^7I25A1,2 (E. coli) [17]): 35 nM
- Kd (GroES^7 (E. coli) [18]): 4.54 nM
- Kd (GroES^7I25A1,4 (E. coli) [19]): 51.3 nM
- Kd (GroES^7I25D1 (E. coli)): 25.6 nM
- Kd (GroES^7I25D1,4 (E. coli)): 73.1 nM
- Kd (GroES^7I25D1,2 (E. coli)): 38.7 nM
- Kd (GroES^7I25D1,3 (E. coli)): 71.9 nM
- Kd (GroES^7I25A1,3 (E. coli) [20]): 39.7 nM
